This is an account of results in article PMC6834639.

For the assay, the target named is T1, WT Aβ (1–10).
T1 chain: DAEFRHDSGY
Nature of the assay: native MS; IM-MS of oligomers of one Aβ fragment alone; Aβ (1–10) and Aβ (1–16) 600 µM, 10 mM NH4OAc; oligomers of many sizes seen, a printed size is the largest one. To be noted: remark: other sources report otherwise.

With DAEFRHDSGY [WT Aβ (1–10)], the stoichiometry N came to 19.

As a reminder, the stoichiometry N is a count of units in the complex or per binding partner.
